Measurements from article PMC8748748.

What was measured:
Assay in all cases: potentiometry
[1] = molecular target: Lys1 (position 1, -----KCNTAT)
[2] = molecular target: Tyr37 (position 37, VGSNTY-----)
[3] = molecular target: Nterm1 (position 1, -----KCNTAT)
His18 (position 18, …) = molecular target: His18 (position 18, …)
[4] = molecular target: His18 (position 18, ANFLVHS----)
[5] = 298 K, 40 mM SDS (stated as the ionic strength), none (ligand 0.5 mM, Cu(II):ligand 0.9:1), Cu(II)-bound peptide (1:1 complex) in SDS, the titrating residue is not coordinated to the metal
[6] = 298 K, 40 mM SDS (stated as the ionic strength), none (ligand 0.5 mM; electrode calibrated by titrating HClO4 with NaOH), metal-free peptide in SDS, helical-like structure by CD
[7] = not stated for the quoted titrations (the Figure 4 competition plot caption gives T = 298 K), metal-free peptide in water, cited from earlier work

Protein	pKa [1, 5]	pKa [1, 6]	pKa [1, 7]	pKa [2, 5]	pKa [2, 6]	pKa [2, 7]	pKa [3, 6]	pKa [3, 7]	pKa (His18 (position 18, …); [6])	pKa (His18 (position 18, …); [7])	pKa [4, 6]	pKa [4, 7]	pKa [3, 5]
KCNTATCATQRLANFLVRSSNNLGPVLPPTNVGSNTY [Rat amylin (islet amyloid polypeptide, IAPP) (Rattus norvegicus)]	10.04	10.44	10.20	9.61	10.08	9.49	7.85	7.13					
KCNTATCATQRLANFLVHSSNNFGPILPPTNVGSNTY [Ac-pramlintide (N-acetylated pramlintide) (Homo sapiens (synthetic analogue); A25P;S28P;S29P)]		10.50			10.01				7.57				
KCNTATCATQRLANFLVHSSNNFGPILPPTNVGSNTY	10.89	10.92	10.32	10.28	9.93	9.67	8.39	7.53	6.76	5.79			
KCNTATCATQRLANFLVHS [Amylin(1-19), membrane-disrupting fragment of human amylin (IAPP) (Homo sapiens)]	10.05	9.88	10.83				8.18	7.97			7.28	6.04	8.98
